Consider eight molecules from US20150274826A1 (ARCH ONCOLOGY, published 2015).

Substitutions are numbered along the chain they refer to.

The chains are these.
T1: mouse CD47 (mouse, UniProt Q61735 19-303)
T1 construct: whole, on cells; also called CD47 on mouse RBCs; CD47 on 4T1 cells
T1 sequence (looked up): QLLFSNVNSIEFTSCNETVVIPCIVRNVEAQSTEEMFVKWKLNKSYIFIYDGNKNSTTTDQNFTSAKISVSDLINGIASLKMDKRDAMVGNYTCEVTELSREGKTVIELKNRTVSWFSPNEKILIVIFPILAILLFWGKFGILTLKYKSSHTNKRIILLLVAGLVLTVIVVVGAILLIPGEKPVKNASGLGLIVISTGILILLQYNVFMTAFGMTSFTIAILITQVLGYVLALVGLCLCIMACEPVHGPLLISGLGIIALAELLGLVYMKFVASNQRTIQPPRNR

T2: rat CD47 (rat, UniProt P97829 19-303)
T2 construct: whole, on cells; also called CD47 on rat RBCs
T2 sequence (looked up): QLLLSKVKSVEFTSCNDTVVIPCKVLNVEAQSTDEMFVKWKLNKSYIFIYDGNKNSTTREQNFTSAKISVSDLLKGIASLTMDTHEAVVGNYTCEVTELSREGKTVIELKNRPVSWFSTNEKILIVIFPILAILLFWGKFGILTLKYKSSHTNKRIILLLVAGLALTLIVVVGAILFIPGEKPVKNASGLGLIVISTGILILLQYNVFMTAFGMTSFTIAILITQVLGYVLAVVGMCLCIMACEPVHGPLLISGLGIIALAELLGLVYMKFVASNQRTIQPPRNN

T3: pig CD47 (pig, UniProt Q9GKE8 19-303)
T3 construct: whole, on cells; also called CD47 on porcine RBCs
T3 sequence (looked up): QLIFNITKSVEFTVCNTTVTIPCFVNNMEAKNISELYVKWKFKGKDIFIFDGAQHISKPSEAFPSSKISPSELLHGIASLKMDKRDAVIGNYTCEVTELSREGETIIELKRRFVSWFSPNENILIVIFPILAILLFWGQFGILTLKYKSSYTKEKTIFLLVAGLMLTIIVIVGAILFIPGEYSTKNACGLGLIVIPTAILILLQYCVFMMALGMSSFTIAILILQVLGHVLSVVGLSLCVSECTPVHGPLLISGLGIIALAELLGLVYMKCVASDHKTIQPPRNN

T4: dog CD47 (dog, UniProt A0A8I3PM61 19-310)
T4 construct: also called CD47 on dog RBCs
T4 sequence: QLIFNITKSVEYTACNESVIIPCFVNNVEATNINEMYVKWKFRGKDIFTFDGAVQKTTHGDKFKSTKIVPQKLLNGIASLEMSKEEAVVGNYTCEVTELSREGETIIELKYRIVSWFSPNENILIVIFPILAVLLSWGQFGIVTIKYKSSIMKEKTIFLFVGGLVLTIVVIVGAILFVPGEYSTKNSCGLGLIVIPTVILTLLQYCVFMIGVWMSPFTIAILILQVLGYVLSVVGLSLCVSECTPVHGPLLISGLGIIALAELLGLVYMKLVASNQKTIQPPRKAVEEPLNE

B1: Clone 7 (pVxK7b-037-hum07-LC / pVxK7b-037-hum07-HC) (antibody, human IgG1, kappa, V domains shown)
VH: QVQLQESGPGLVKPGATVKISCKVSGYTFTNYYVFWVRQARGQRLEWIGDINPVNGDTNFNEKFKNRVTITADKSTSTAYMELSSLRSEDTAVYYCARGGYTMDYWGQGTLVTVSS
VL: DIVMTQTPLSLPVTPGEPASISCRSSQSLVHSNGNTYLHWYLQKPGQSPQLLIYKVSYRFSGVPDRFSGSGSGTDFTLKISRVEAEDVGVYYCSQNTHVPRTFGQGTKVEIKR
B2: Clone 11 (pVxK7b-037-hum11-LC / pVxK7b-037-hum11-HC) (antibody, human IgG1, kappa, V domains shown)
VH: B1 VH
VL: EIVLTQSPATLSVSPGERATLSCRSSQSLVHSNGNTYLHWYQQKPGQAPRLLIYKVSYRFSGVPSRFSGSGSGTDFTFTISSLEAEDAATYYCSQNTHVPRTFGQGTKVEIKR
notes: also called Cl 11
B3: Clone 12 (pVxK7b-037-hum12-LC / pVxK7b-037-hum12-HC) (antibody, human IgG1, kappa, V domains shown)
VH: B1 VH
VL: B1 VL with L42Q, Q47K, S48A, Q50K
B4: Clone 18 (pVxK7b-037-hum18-LC / pVxK7b-037-hum18-HC) (antibody, human IgG1, kappa, V domains shown)
VH: EVQLVQSGAEVKKPGESLRISCKGSGYTFTNYYVFWIRQSPSRGLEWLGDINPVNGDTNFNEKFKNRVTITADKSTSTAYMELSSLRSEDTAVYYCARGGYTMDYWGQGTLVTVSS
VL: B2 VL
B5: Clone 5 (pVxK7b-037-hum05-LC / pVxK7b-037-hum05-HC) (antibody, human IgG1, kappa)
heavy: not shown
light: DIVMTQTPLSLPVTPGEPASISCRSSQSLVHSNGNTYLHWYLQKPGQSPQLLIYKVSYRFSGVPDRFSGSGSGTDFTLKISRVEAEDVGVYYCSQNTHVPRTFGQGTKVEIKRTVAAPSVFIFPPSDEQLKSGTASVVCLLNNFYPREAKVQWKVDNALQSGNSQESVTEQDSKDSTYSLSSTLTLSKADYEKHKVYACEVTHQGLSSPVTKSFNRGEC
B6: Clone 8 (pVxK7b-037-hum08-LC / pVxK7b-037-hum08-HC) (antibody, human IgG1, kappa)
heavy: not shown
light: B5 light with L42Q, Q47K, S48A, Q50K
B7: Clone 17 (pVxK7b-037-hum17-LC / pVxK7b-037-hum17-HC) (antibody, human IgG1, kappa)
heavy: not shown
light: AIQLTQSPSSLSASVGDRVTITCRSSQSLVHSNGNTYLHWYQQKPGQAPRLLIYKVSYRFSGVPDRFSGSGSGTDFTLKISRVEAEDVGVYYCSQNTHVPRTFGQGTKVEIKRTVAAPSVFIFPPSDEQLKSGTASVVCLLNNFYPREAKVQWKVDNALQSGNSQESVTEQDSKDSTYSLSSTLTLSKADYEKHKVYACEVTHQGLSSPVTKSFNRGEC
B8: Clone 16 (pVxK7b-037-hum16-LC / pVxK7b-037-hum16-HC) (antibody, human IgG1, kappa, V domains shown)
VH: QVQLQESGPGLVKPSQTLSLTCTVSGYTFTNYYVFWVRQARGQRLEWIGDINPVNGDTNFNEKFKNRVTISADKSISTAYLQWSSLKASDTAMYYCARGGYTMDYWGQGTLVTVSS
VL: AIQLTQSPSSLSASVGDRVTITCRSSQSLVHSNGNTYLHWYQQKPGQAPRLLIYKVSYRFSGVPDRFSGSGSGTDFTLKISRVEAEDVGVYYCSQNTHVPRTFGQGTKVEIKR

One experiment deals with T5, human CD47 (human, UniProt Q08722 19-323).
T5 construct: whole, on cells; also called CD47 on human RBCs; CD47 on OV10 cells
T5 sequence (Q08722 19-323): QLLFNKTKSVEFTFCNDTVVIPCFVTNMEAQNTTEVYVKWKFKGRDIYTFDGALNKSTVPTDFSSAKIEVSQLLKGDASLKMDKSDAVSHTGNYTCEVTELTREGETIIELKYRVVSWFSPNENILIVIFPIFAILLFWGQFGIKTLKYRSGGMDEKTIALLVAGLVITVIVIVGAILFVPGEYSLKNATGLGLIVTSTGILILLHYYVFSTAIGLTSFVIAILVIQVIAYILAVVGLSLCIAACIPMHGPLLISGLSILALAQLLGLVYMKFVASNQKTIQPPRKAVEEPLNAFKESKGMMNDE
The experiment can be described thus: flow cytometry on RBCs, CHO supernatant 10 ng/ml. The method, then: (§1) RBCs are incubated for 60 minutes on ice with tissue culture supernatants containing the secreted humanized antibodies at a concentration of 10 ng/ml in a solution of phosphate buffered saline, pH 7.2, 2.5 mM EDTA (PBS+E), or with various concentrations of purified antibodies. Cells are then washed with cold PBS+E, and incubated for an additional hour on ice with FITC labeled donkey anti-human antibody (Jackson Immuno Research Labs, West Grove, Pa.; Catalogue #709-096-149) in PBS+E. Cells are then washed with PBS+E, and antibody binding is analyzed using a BD FACSAria Cell Sorter (Becton Dickinson) or a C6 Accuri Flow Cytometer (Becton Dickinson). Antibody binding is quantitated by comparison of mean fluorescence values relative to that of chimeric antibody >VxP037-01LC (SEQ ID NO:7))/>VxPO37-01HC (SEQ ID NO:57). The mean fluorescence value for each antibody is divided by the mean fluorescence value for the chimeric antibody.
For orientation: A flow cytometer gives signals particle by particle.
On to B1, for which the “mean fluorescence relative to chimeric antibody” value was determined as 0.5 ratio.

With B2, the “mean fluorescence relative to chimeric antibody” value stood at 0.8 ratio.

As for B3, the “mean fluorescence relative to chimeric antibody” value turned out to be 0.8 ratio.

As for B4, the “mean fluorescence relative to chimeric antibody” value stood at 1 ratio.

As to B5, the “mean fluorescence relative to chimeric antibody” value turned out to be 1 ratio.

Take B6: the “mean fluorescence relative to chimeric antibody” value was found to be 0.7 ratio.

Consider B7, for which the “mean fluorescence relative to chimeric antibody” value amounted to 0.8 ratio.

Turning to B8, the “mean fluorescence relative to chimeric antibody” value came out at 0.9 ratio.

The target of a further experiment is T1, mouse CD47. The experiment can be described thus: flow cytometry on RBCs, CHO supernatant 10 ng/ml. On the procedure: as §1
In the case of B1, the “mean fluorescence relative to chimeric antibody” value is 0.4 ratio.

With B2, the “mean fluorescence relative to chimeric antibody” value amounted to 0.7 ratio.

Consider B3, for which the “mean fluorescence relative to chimeric antibody” value came out at 0.6 ratio.

With B4, the “mean fluorescence relative to chimeric antibody” value amounted to 1.3 ratio.

Take B5: the “mean fluorescence relative to chimeric antibody” value stood at 1 ratio.

For B6, the “mean fluorescence relative to chimeric antibody” value came out at 0.7 ratio.

As for B7, the “mean fluorescence relative to chimeric antibody” value amounted to 0.9 ratio.

With B8, the “mean fluorescence relative to chimeric antibody” value amounted to 1 ratio.

The next experiment has as its target T2, rat CD47. The experiment can be described thus: flow cytometry on RBCs, CHO supernatant 10 ng/ml. The method, then: as §1
In the case of B1, the “mean fluorescence relative to chimeric antibody” value was determined as 0.8 ratio.

In the case of B2, the “mean fluorescence relative to chimeric antibody” value turned out to be 1.2 ratio.

B3: the “mean fluorescence relative to chimeric antibody” value worked out at 1.3 ratio.

Consider B4, for which the “mean fluorescence relative to chimeric antibody” value was 2.2 ratio.

B5: the “mean fluorescence relative to chimeric antibody” value came to 2.2 ratio.

B6: the “mean fluorescence relative to chimeric antibody” value was 1.2 ratio.

As to B7, the “mean fluorescence relative to chimeric antibody” value is 2.1 ratio.

Consider B8, for which the “mean fluorescence relative to chimeric antibody” value is 2.1 ratio.

The next experiment addresses T3, pig CD47. The experiment can be described thus: flow cytometry on RBCs, CHO supernatant 10 ng/ml. On the procedure:
as §1
With B1, the “mean fluorescence relative to chimeric antibody” value turned out to be 0.9 ratio.

B2: the “mean fluorescence relative to chimeric antibody” value turned out to be 1.2 ratio.

For B3, the “mean fluorescence relative to chimeric antibody” value is 1.4 ratio.

In the case of B4, the “mean fluorescence relative to chimeric antibody” value is 1.2 ratio.

B5: the “mean fluorescence relative to chimeric antibody” value worked out at 1.2 ratio.

As to B6, the “mean fluorescence relative to chimeric antibody” value was determined as 0.8 ratio.

On to B7, for which the “mean fluorescence relative to chimeric antibody” value came out at 1.3 ratio.

As to B8, the “mean fluorescence relative to chimeric antibody” value was determined as 1.1 ratio.

A further experiment has as its target T4, dog CD47. The experiment can be described thus: flow cytometry on RBCs, CHO supernatant 10 ng/ml. On the procedure:
as §1
With B1, the “mean fluorescence relative to chimeric antibody” value came out at 0.8 ratio.

Regarding B2, the “mean fluorescence relative to chimeric antibody” value came to 0.8 ratio.

For the molecule B3, the “mean fluorescence relative to chimeric antibody” value turned out to be 0.9 ratio.

For B4, the “mean fluorescence relative to chimeric antibody” value turned out to be 1.5 ratio.

On to B5, for which the “mean fluorescence relative to chimeric antibody” value is 1.1 ratio.

With B6, the “mean fluorescence relative to chimeric antibody” value amounted to 0.8 ratio.

Turning to B7, the “mean fluorescence relative to chimeric antibody” value stood at 1.3 ratio.

As for B8, the “mean fluorescence relative to chimeric antibody” value is 1.1 ratio.
